From article PMC12814185, “Receptor-Mediated Shuttling of a D‑Amino Acid Peptide Achieves High Nanomolar Cytosolic Concentrations” (Journal of the American Chemical Society, 2025) come the findings set out here.

Experiment [1] concerns the target T1, chemokine-like receptor 1 (CMKLR1), Q99788.
T1 chain: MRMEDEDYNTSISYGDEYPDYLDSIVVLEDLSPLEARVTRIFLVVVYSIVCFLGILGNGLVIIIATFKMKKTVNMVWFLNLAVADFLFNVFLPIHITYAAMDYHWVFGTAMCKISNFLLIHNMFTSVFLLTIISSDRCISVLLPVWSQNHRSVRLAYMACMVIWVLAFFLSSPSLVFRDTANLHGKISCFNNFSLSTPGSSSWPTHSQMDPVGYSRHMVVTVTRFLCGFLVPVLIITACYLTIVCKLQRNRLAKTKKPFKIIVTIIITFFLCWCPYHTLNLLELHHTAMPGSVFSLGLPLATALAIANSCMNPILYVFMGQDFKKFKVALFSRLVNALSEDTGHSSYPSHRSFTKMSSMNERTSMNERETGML

The target of experiment [2] is recombinant human GST-MDM2 (human), Q00987. Put plainly: fluorescence polarisation. In general terms: Fluorescence polarisation rises when a labelled molecule tumbles more slowly, as on binding a larger partner.
recombinant human GST-MDM2 (human), Q00987, sequence (Q00987 whole entry): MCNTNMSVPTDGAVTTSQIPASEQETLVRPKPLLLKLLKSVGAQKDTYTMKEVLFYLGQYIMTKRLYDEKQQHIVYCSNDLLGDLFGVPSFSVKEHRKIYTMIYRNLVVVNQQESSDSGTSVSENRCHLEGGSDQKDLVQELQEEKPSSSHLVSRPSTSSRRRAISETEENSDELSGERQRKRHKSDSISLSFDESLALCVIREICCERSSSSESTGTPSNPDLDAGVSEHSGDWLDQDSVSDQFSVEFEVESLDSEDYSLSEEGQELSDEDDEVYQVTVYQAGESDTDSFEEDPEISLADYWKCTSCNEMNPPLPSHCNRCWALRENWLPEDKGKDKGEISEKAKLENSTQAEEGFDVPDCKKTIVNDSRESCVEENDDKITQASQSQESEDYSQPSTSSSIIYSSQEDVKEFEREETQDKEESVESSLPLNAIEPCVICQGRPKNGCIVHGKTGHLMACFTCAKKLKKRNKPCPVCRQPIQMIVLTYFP

B1: Cy5-hsLMWP-PMIγ-cC9 (peptide)
chain: GSVSHHHHHHGGHHHHKDWWPLAFEALLRGEV
modifications: (EG)3 spacer between hsLMWP and D-lysine; D-lysine at 17 carrying Cy5-(EG)3 on its side chain; dwwplafeallr (residues 18-29) are D-amino acids; citrulline at 33; (EG)3 spacer between Cit and Pra; propargylglycine (Pra) at 34, joined to the azidolysine of cC9 by CuAAC; C-terminal amide | N-terminal acetyl; azidolysine at 1 (joined to Pra of the other chain by CuAAC); D-homocysteine at 5 in a …
In general, Kd refers to the equilibrium constant for the complex coming apart. Consider B1, for which, in experiment [1], the Ca2+ flux assay, EC50 was 220 nM. In addition, in experiment [2], the equilibrium dissociation constant (Kd) was 90 nM.
